Assay results as given in US11026994B2, “Syndecan-2 compositions and methods of use” (ORBSEN THERAPEUTICS LIMITED, priority 2013, dated 2021).
“Also recorded” adds a separate entry of the source.

Columns and labels:
[1] = tested on: SDC2 RNA; assay: SDC2 RNA levels in treated cell populations; type: cell-based, human
Excerpt: HDAC inhibitors and sirtuins may be used to increase SDC2 expression. […] The sirtuin family of HDACs, including SIRT1 and SIRT2, may be used to increase SDC2 expression. The sirtuins are NAD-dependant HDACs and are reported to deacetylate p53 protein—acetylation of p53 is reported to be important for its transactivation/transcription activity. Thus sirtuins are key regulators of p53 activity. Examples of sirtuins include nicotinamide, sirtinol, EX-527 and tenovins. […] DMSO is also reported to contain HDAC inhibitor (p53 activation) capacity.
DMOG is a hypoxia mimetic, and other hypoxia mimetics for use in the invention include cobalt chloride, EDHB and desferrioxamine. Hypoxia is reported to stimulate p53 (via ATR/CHK1 kinases).
We tested various HDAC inhibitors for their effect on SDC2 expression on human cell populations initially isolated on the basis of SDC2 expression and maintained subsequently in culture.

[2] = tested on: SDC2 secretion; assay: SDC2 secretion after environmental toxin BPDE; type: cell-based, human; conditions: 600 nM BPDE
[3] = tested on: SDC2 shedding from human MSCs; assay: SDC2 ELISA of supernatants of Nutlin-3a treated MSCs; type: cell-based; conditions: 24 h
Protocol: MSCs were plated at a density of 10^5 cells per well of a 6-well plate (Nunc) in complete media (α-MEM, 10% FBS) and left to adhere overnight. Medium was then exchanged for serum-free containing Nutlin-3a or DMSO as a carrier control. 24 h post-induction the cells were harvested for both RNA and protein and the serum-free supernatant was collected for ELISA.
The levels of human Syndecan-2 was measured in supernatants collected from hMSCs using commercially available ELISA assays (CUSABIO). The assay was conducted as per the manufacturer's instructions. Calibration curves were prepared using purified standards for SDC2. Curve fitting was accomplished by sigmoidal logisitic regression following manufacturer's instructions.
24 h post-treatment with Nutlin-3a (5, 10, 20 μM) or DMSO carrier control (5, 20 μM), the supernatant from MSCs was collected, centrifuged for 5 min at 1500 rpm and subjected to SDC2 ELISA including unconditioned serum-free media as an additional control.
MSCs treated with either Nutlin-3a or DMSO as a carrier control for 24 h in serum-free media. The serum-free supernatants were collected and a commercially available SDC2 ELISA kit was used to detect shed SDC2 present in the supernatants.

[4] = tested on: NFκB activation by TNFα and IL1β; assay: κB luciferase assay in A549 cells pretreated with SDC2 recombinant protein; type: cell-based; conditions: 10 ng/mL TNF-α/IL-1β, 24 hours
Protocol: A549 cells stably transduced with κB luciferase plasmid were pretreated for 1 hour with SDC2 recombinant protein. 10 ng/mL TNF-α/IL-1β was added to the media and luciferase assay performed after 24 hours. The results are shown in FIG. 5. ***=p<0.0001 with respect to 0 ng/mL S2
A549 cells stably transduced with KB luciferase plasmid and treated for 24 hours with recombinant SDC2. In the top panel: cytokines were added to the media for 24 hours and luciferase assay performed. In the bottom panel: media was replaced before addition of cytokines for 24 hours. *=p<0.01 with respect to 0 ng/mL S2; ***=p<0.0001 with respect to 0 ng/mL S2; +++=p<0.0001 with respect to 100 ng/mL S2.

[5] = tested on: HCT116; assay: Cancer cell migration toward conditioned medium (xCELLigence RTCA); type: cell-based; design: key: ↑: increased migration compared to conditioned media; ↓: decreased cell migration compared to conditioned media; —: no changed compared to conditioned media
Excerpt: (§1) Cell migration is a critical parameter for in vitro cell culture-related studies. It is necessary to monitor the dynamic changes of cell populations under different conditions. Using a real time cell analyser (RTCA, xCELLigence, Roche) which is an impedance-based device we can monitor the following properties in real time: proliferation, migration and cell adherence. Such properties are involved in cancer evolution. We used this method to establish the migratory capacity of cancer cells toward conditioned medium. The model is accepted as predictive of efficacy in cancer therapy—reduced migration in the model indicates anti-cancer properties.
(§2) In our investigations, cell migration was determined using 16-well CIM plates read in real-time using the aforementioned xCELLigence device. For these studies a variety of cancer cell lines were used from breast cancer (MDA-MB-231, MDA-MB-486, MCF-10A), prostate cancer (DU145), pancreas cancer (SU-86-86) and colon carcinoma (HCT116).

[6] = tested on: Du145; assay: as above; type: cell-based; conditions: Recombinant SDC2 500 ng/ml
Excerpt: as §1, §2

[7] = tested on: SU-86-86; assay: as above; type: cell-based
Excerpt: as §1, §2

[8] = tested on: MDA-MB-231; assay: as above; type: cell-based; conditions: one symbol per experiment
Excerpt: as §1, §2

[9] = at 24 hrs, human cell populations isolated on SDC2 expression
[10] = other series of tests, time not given

Molecule: 2-pyrrolidinone-n-butyric acid [PBA]
- SDC2 RNA levels [1, 9]: increased SDC2 RNA levels

Molecule: OC1c2cc3ccc4cccc5ccc(c2C2OC2C1O)c3c45 (stereo not drawn) [BPDE, benzo[a]pyrene-7,8-diol-9,10-epoxide]
- increase of SDC2 secretion [2]: approximately 3 fold

Molecule: COC(=O)CNC(=O)C(=O)OC [DMOG, Dimethyloxaloylglycine]
- SDC2 RNA levels [1, 10]: very robust increase in SDC2 RNA

Molecule: C[S+](C)[O-] [DMSO]
- SDC2 RNA levels [1, 10]: increased SDC2 RNA levels

Molecule: COc1ccc(C2=N[C@@H](c3ccc(Cl)cc3)[C@@H](c3ccc(Cl)cc3)N2C(=O)N2CCNC(=O)C2)c(OC(C)C)c1 [Nutlin-3a]
- SDC2 shedding ([3]; 5, 10, 20 μM, compared to DMSO control): dose-dependent increase in SDC2 shedding
- amount of shed SDC2 ([3]; Nutlin-3a 20 μM, serum-free, average of three MSC donors): ~1000 pg/mL

Molecule: O=C1CCc2c(ccc3ccccc23)O1 [Splitomicin]
- SDC2 RNA levels [1, 9]: increased SDC2 RNA levels; also recorded: greatest stimulation

Molecule: CCCC(CCC)C(=O)O [Valproic Acid]
- SDC2 RNA levels [1, 9]: increased SDC2 RNA levels

B1: Recombinant SDC2: recombinant Syndecan-2 (SDC2) protein (protein, UniProt P34741 19-201, looked up)
Syndecan-2: ESRAELTSDKDMYLDNSSIEEASGVYPIDDDDYASASGSGADEDVESPELTTSRPLPKILLTSAAPKVETTTLNIQNKIPAQTKSPEETDKEKVHLSDSERKMDPAEEDTNVYTEKHSDSLFKRTEVLAAVIAGGVIGFLFAIFLILLLVYRMRKKDEGSYDLGERKPSSAAYQKAPTKEFYA
- NFκB activation by TNFα and IL1β [4]: suppressed NFκB activation
- Cancer Cell Migration ([5]; Recombinant SDC2 100 ng/ml): ↓
- Cancer Cell Migration ([5]; Recombinant SDC2 500 ng/ml): ↓
- Cancer Cell Migration ([5]; Recombinant SDC2 1000 ng/ml): ↓
- Cancer Cell Migration [6]: ↓—
- Cancer Cell Migration ([7]; Recombinant SDC2 100 ng/ml): ↓↑
- Cancer Cell Migration ([7]; Recombinant SDC2 500 ng/ml): ↓↓
- Cancer Cell Migration ([7]; Recombinant SDC2 1000 ng/ml): ↓↑
- Cancer Cell Migration ([8]; Recombinant SDC2 100 ng/ml): ↓↓
- Cancer Cell Migration ([8]; Recombinant SDC2 500 ng/ml): ↓↓↓↓↓—
